The target of this test is T1, soluble human recombinant CD4 expressed in baculovirus (human, UniProt P01730 26-396, limits assumed).
T1 construct: Coated on plates for the ELISA and covalently immobilised on the sensor for BIAcore; Only called soluble; also called soluble CD4; CD4 expressed in the baculovirus
Kind of test: ELISA on coated baculovirus-expressed soluble CD4, anti-human kappa-peroxidase, A490 [panel Mutants CDR-H 13B8.2]. The protocol:
A 1:500 dilution of the CD4 fraction expressed by the baculovirus in 0.1 M carbonate/bicarbonate buffer, pH 9.6, was incubated overnight at 4° C. on 96-well enzymatic immunoanalysis plates (Nunc, Paisley, UK). Four washings with the phosphate saline buffer (PBS) 160 mM pH 7.2, containing 0.1% Tween 20 (PBD-T), were performed before and after the saturation of the microplates, with powdered skim milk at a concentration of 1% in the PBS-T for one hour at 37° C.
(In general: An ELISA detects its analyte on a solid surface through an enzyme-linked reagent.)

B1: mutant Fab Y102-H of the 13B8.2 antibody (Fab, V domains shown)
VH: QVQLKQSGPGLVQPSQSLSITCTVSGFSLTTFGVHWVRQSPGKGLEWLGVIWRSGITDYNVPFMSRLSITKDNSKSQVFFKLNSLQPDDTAIYYCAKNDPGTGFAAWGQGTLVTVSA
VL: DIQMTQSPASLSASVGETVTFTCRASENIYSYLAWYQQKQGKSPQLLVHDAKTLAEGVPSRFSGGGSGTQFSLKINTLQPEDFGTYYCQHHYGNPPTFGGGTKLEIK
notes: Chimeric Fab with human CH1-γ1 and Cκ; baculovirus/Sf9
For B1, the binding result is “binds”.

(Values after US20050226874A1 (CENTRE NATIONAL DE LA RECHERCHE SCIENTIFIQUE CNRS A …, published 2005).)
